Laboratory results published in publication doi:10.1101/2022.12.21.521423 (bioRxiv, 2022).

Tests used:
[1] = target: HA-LRRC37B-LRR-ECTO (human, UniProt Q96QE4 468-841); assay: cell-surface binding assay
[2] = target: HA-LRRC37B-ECTO (human, UniProt Q96QE4 28-905); assay: cell-surface binding assay
HA-LRRC37B-ECTO, sequence (Q96QE4 28-905): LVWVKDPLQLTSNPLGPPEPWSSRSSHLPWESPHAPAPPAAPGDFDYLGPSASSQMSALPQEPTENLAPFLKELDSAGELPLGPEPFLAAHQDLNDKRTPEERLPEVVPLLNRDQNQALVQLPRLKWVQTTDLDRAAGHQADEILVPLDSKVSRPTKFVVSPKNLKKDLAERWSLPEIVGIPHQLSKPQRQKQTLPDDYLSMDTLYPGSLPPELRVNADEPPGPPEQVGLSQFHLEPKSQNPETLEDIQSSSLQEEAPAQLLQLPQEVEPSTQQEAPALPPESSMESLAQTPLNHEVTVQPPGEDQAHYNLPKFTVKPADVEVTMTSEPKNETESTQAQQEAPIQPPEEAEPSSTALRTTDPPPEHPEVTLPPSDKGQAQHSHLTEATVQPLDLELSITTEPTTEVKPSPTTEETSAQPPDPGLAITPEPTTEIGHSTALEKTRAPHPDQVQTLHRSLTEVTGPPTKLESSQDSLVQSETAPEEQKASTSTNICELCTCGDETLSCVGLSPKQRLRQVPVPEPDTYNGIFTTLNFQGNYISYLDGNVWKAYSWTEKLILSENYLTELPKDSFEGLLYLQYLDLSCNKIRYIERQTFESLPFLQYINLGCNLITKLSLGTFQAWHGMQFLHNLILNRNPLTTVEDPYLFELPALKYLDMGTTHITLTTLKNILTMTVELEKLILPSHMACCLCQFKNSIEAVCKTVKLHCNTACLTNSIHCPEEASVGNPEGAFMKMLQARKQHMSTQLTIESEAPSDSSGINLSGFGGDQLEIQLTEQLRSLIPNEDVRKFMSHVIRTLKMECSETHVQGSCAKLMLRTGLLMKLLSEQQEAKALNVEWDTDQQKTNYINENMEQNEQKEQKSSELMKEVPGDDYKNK

HA-LRRC37B-LRR-ECTO, sequence (Q96QE4 468-841): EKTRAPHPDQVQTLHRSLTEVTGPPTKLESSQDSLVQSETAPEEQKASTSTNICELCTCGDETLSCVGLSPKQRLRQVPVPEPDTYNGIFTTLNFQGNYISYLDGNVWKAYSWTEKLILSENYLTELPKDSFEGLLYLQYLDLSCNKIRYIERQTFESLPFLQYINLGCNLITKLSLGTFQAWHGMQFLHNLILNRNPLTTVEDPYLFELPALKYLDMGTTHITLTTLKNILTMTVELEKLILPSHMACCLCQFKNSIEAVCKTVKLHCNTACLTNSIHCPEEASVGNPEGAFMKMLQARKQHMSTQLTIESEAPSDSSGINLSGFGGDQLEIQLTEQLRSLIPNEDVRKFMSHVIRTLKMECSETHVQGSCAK

B1: FGF13A ExonS-biotin (peptide)
peptide: MAAAIASSLIRQKRQAREREKSNACKCVSSPSKGKTSCDKNKLNVFSRVKLFGSKKRRRRRPE
modifications: also: biotin (position not given here)
Kd [1]: 1.18 ± 0.718 nM
Kd [2]: 2.29 ± 1.04 nM
